Among the data in patent US20260242417A1 are Mean luminescence intensity (Gli-luciferase reporter, NIH3T3 cells) (luminescence intensity) values, retold here.

The assay concerns the target Patched.

For the substance “Recombinant mouse Sonic HedgeHog (mShh) (from UniProt Q62226) (ligand)”, the Mean luminescence intensity (Gli-luciferase reporter, NIH3T3 cells) (luminescence intensity) came to 6460.
